According to patent publication US11407819B2, “Compositions and use of a fibrinogen binding motif present in EFB and COA for therapeutics and vaccines against Staphylococcus aureus” (priority 2013, dated 2022):

Legend:
[1] = target: T1, Fibrinogen (Homo sapiens, UniProt P02671+P02675+P02679); assay: Solid phase binding assay, fibrinogen binding to coated DC2, DC2-Fg, Efb; details: read-out: apparent KD of fibrinogen binding
T1 sequence (P02671 20-629 limits assumed): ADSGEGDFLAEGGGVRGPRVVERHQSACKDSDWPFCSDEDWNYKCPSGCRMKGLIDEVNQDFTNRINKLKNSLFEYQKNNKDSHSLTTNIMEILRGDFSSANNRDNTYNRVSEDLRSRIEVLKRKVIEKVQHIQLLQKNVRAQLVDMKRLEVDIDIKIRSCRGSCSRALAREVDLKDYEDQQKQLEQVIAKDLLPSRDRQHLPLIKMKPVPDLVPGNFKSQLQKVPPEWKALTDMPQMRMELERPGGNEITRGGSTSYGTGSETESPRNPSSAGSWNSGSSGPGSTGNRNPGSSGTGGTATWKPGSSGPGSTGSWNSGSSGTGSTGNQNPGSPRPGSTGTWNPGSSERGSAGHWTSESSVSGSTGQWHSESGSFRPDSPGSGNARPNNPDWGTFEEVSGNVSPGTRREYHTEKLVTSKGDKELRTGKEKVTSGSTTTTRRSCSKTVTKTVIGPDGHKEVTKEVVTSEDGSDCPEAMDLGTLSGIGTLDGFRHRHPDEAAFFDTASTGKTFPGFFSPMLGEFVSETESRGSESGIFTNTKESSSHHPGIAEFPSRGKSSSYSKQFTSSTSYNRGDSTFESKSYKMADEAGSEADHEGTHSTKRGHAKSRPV
T1 sequence (P02675 31-491): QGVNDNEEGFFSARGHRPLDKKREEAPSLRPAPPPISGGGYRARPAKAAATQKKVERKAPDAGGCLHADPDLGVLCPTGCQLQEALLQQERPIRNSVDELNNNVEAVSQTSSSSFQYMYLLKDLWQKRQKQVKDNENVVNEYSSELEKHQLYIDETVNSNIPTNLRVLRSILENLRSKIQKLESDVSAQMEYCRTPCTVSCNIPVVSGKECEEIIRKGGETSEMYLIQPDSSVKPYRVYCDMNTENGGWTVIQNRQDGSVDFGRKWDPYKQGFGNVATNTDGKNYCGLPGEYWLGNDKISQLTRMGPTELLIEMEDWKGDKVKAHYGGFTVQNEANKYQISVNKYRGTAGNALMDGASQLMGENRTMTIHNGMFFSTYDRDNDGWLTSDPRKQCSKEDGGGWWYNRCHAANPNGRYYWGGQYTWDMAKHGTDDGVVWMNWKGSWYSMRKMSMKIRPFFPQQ
T1 sequence (P02679 27-453): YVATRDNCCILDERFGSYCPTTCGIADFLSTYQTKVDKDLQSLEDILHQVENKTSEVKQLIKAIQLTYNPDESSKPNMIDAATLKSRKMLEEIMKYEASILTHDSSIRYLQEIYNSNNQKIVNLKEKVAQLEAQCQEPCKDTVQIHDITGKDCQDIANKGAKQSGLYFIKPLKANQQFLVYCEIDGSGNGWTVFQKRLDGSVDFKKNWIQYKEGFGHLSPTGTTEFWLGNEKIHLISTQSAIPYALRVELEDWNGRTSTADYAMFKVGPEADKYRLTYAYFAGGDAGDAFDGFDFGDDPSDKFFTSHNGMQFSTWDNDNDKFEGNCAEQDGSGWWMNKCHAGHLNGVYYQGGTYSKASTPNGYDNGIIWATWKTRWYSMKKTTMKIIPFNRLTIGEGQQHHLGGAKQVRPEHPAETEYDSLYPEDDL
Protocol: Solid phase binding assay-: Microtiter wells were coated with 1 μg of DC2, DC2-Fg, or Efb overnight at 4° C. to assess fibrinogen adhesion to DC proteins. Coated wells were blocked with 4 wt % BSA in PBS for 1 hour at room temperature. Fibrinogen was added to each protein-coated well in a serial dilution from 100 to 0 μg/well (0.3 to 0 μM). After 1 hour of incubation at room temperature, a sheep anti-fibrinogen antibody was applied to the wells (1:1000 dilution) for 1 hour at room temperature. An HRP-labelled secondary antibody to sheep was applied to the wells for 1 hour at room temperature, and […]™ OPD was utilized to detect bound fibrinogen via an absorbance reading at 450 nm on a THERMOMAX™ plate reader. Studies were performed in triplicate, and plates were washed three times between each step with 200 μl of PBS with 0.1 vol % TWEEN® 20.

[2] = system: C2C12-α1 and C2C12-α2 cells (human integrin α1 or α2 subunits); assay: C2C12 cell adhesion to coated DC proteins; format: cell-based, mouse; details: 10 μg coated protein; 1 hour
Protocol: Integrin interactions with DC2-Fg—A11 cell culture supplies were purchased from Life Technologies and used as received unless otherwise noted. […] Mouse myoblast C2C12, C2C12-α1, and C2C12-α2 cells were cultured in Dulbecco's modified Eagle's medium (DMEM) with 10 vol % fetal bovine serum (FBS) and 1 vol % penicillin-streptomycin, 1 mg ml^−1 geneticin, or 10 μg ml^−1 puromycin, respectively. To assess C2C12 cell adhesion, 48 well tissue culture polystyrene (TCPS) plates were coated with 10 μg of DC1 (negative control—no integrin binding sites), DC2, DC2-Fg, or collagen type I (positive control) overnight at 4° C. Proteins were coated in triplicate for each cell type. Wells were blocked with 4 wt % bovine serum albumin (BSA) in PBS for 1 hour at room temperature and rinsed with sterile PBS. Cells were adapted to serum-free media (DMEM with 1 mM CaCl2, 1 mM MgCl2, and appropriate antibiotic) for 12 hours prior to trypsinization and seeding at 5,000 cells cm^−1. […] Lysates from samples and from known standards were transferred to a 96 well plate, and cell numbers were measured with the CYTOTOX 96® NON-RADIOACTIVE CYTOTOXICITY ASSAY. […] Then, 50 μl of stop solution was added to each well, and the absorbance was read at 490 nm. Cell numbers were quantified using standards of known cell numbers for each cell line.

[3] = target: T2, rCoa-C binding to Fg (Homo sapiens, UniProt P02671+P02675+P02679); assay: Competition ELISA, peptide inhibition of rCoa-C (Coa 311-636) binding to Fg; details: increasing concentrations of peptides; 4 nM GST fusion protein
T2 construct: full-length human Fibrinogen (diluted in PBS, Enzyme research); purchased Enzyme research; host or cells: Coa probe made in E. coli BL21
T2 sequence (P02671 20-629 limits assumed): T1 sequence (P02671 20-629 limits assumed)
T2 sequence (P02675 31-491): T1 sequence (P02675 31-491)
T2 sequence (P02679 27-453): T1 sequence (P02679 27-453)
Protocol: The residues in Coa-RI important for fibrinogen binding. FIG. 12A is a panel of coa-RI variant peptides were synthesized where each residue in the sequence is individually replaced with Ala (or Ser when the native a.a. is Ala). […] Wells were coated with 0.25 μg/well Fg. Labels -1, -2, -3, -4, -5, -6, -7, -8, -9, -10, -11, -12, -13, -14, -15, -16, -17, -18, -19, -20, -21, -22, -23, -24, -25, -26, -27 refer to Coa-RI-1, Coa-RI-2, Coa-RI-3, Coa-RI-4, Coa-RI-5, Coa-RI-6, Coa-RI-7, Coa-RI-8, Coa-RI-9, Coa-RI-10, Coa-RI-11, Coa-RI-12, Coa-RI-13, Coa-RI-14, Coa-RI-15, Coa-RI-16, Coa-RI-17, Coa-RI-18, Coa-RI-19, Coa-RI-20, Coa-RI-21, Coa-RI-22, Coa-RI-23, Coa-RI-24, Coa-RI-25, Coa-RI-26, Coa-RI-27, respectively. FIG. 12C is a comparison of amino acid sequence of Efb-O with Coa-RI. FIG. 12D is a Fg-binding register of tandem repeats in Coa. Bold letters denote the residues that are important for Fg binding. Binding of a fixed concentration of rCoa-C (2 nM) to immobilized Fg was determined in the presence of a fixed concentration of these peptides (50 uM) (FIG. 12B). […]
FIG. 13A is a schematic presentation of Coa peptides. […] The Fg binding activities of these peptides were then investigated in a competition ELISA where the binding of rCoa-C to Fg coated microtiter wells were determined in the presence of increasing concentrations of peptide (FIG. 13B). […]

Row | Substance | Kd [1] | C2C12-α1 and C2C12-α2 adhesion [2] | inhibition of rCoa-C binding to fibrinogen by overlapping Coa R peptides [3]
1 | DC2-Fg: DC2 with Fg binding motif Efb-O inserted after position 301 Gln (KYIKFKHDYNILEFNDGTFEYGARPQFNKPA; left off: things letters cannot carry; small tags and cut ends) | ~10 nM | significantly increased C2C12-α1 and C2C12-α2 adhesion relative to DC2 | –
2 | Efb-O: Fg binding motif Efb 68-98 (SEQ ID NO:1); coated comparator in b135 is Efb | ~1 nM | – | –
3 | sCoa-RI2: 27-residue overlapping Coa repeat I peptide (AYNVTTHANGQVSYGARPTYKKPSETN) | – | – | some inhibitory activity
